Source: article PMC12554172, “Systematic analysis of the RGS2 degron reveals characteristics of substrate recognition by the F-box protein FBXO44” (The Journal of Biological Chemistry, 2025)
“Also recorded” adds a separate entry of the source.

How the values were obtained:
RGS2-HA = assay: Coimmunoprecipitation of FLAG-FBXO44 mutant with RGS2-HA; type: cell-based; conditions: HEK-293T cells, HA tag IP, normalized to input, % of WT, three independent experiments
Description: (§1) Figure 6 Point mutations disrupt the RGS2–FBXO44 association. Co-IP was performed in HEK-293T cells transiently transfected with RGS2-HA and FLAG-FBXO44 (WT and mutants as indicated). […] Representative blot and quantification of four independent experiments. […] Levels of each protein were normalized to input and expressed as % of WT. Representative blot and quantification of three independent experiments. ∗p < 0.05; ∗∗∗∗p < 0.0001 using Student's unpaired t test. Co-IP, coimmunoprecipitation; FBXO44, F-box only protein 44; RGS2, regulator of G protein signaling 2.
(§2) Cells were maintained in a humidified incubator at 37 °C with 5% CO2. HEK-293T cells were obtained from the American Type Culture Collection (ATCC; CRL-1573). The American Type Culture Collection cell lines are subjected to comprehensive and repeated authentication and contamination checks, ensuring confirmation of cell line identity and ensuring that it is free of contamination prior to supplying it to users. Cells underwent periodical (every 6 months) mycoplasma testing to ensure cell lines are not compromised. Cells were cultured in Dulbecco's modified Eagle's medium (Gibco, catalog no.: 11995) and supplemented with 10% fetal bovine serum (Gibco, catalog no.: 16000). Cells were transfected with DNA plasmids using Lipofectamine 3000 (Invitrogen) under reduced serum conditions in Opti-MEM (Gibco, catalog no.: 31985). […]

FBXO44 [1] = conditions: ref [24]; cited from earlier work
Text: However, evidence of a direct interaction between RGS2 and FBXO44 has, until now, not yet been established. Thus, we first aimed to verify that purified FBXO44 would bind the degron sequence in vitro. […] This also c ...

HEK-293T cells [2] = assay: Cycloheximide (CHX) chase assay; type: cell-based, human; conditions: for RGS2 protein half-life (t1/2): CHX 50 μM, Western blot, three independent experiments
Description: HEK-293T cells in 12-well plates, transiently transfected with either RGS2^WT or RGS2^C13S, were treated with CHX (50 μM) at indicated time points. Cells were harvested as described later and subjected to SDS-PAGE and Western blot.
(§3) Cells were harvested on ice in lysis buffer containing protease inhibitors (50 mM Tris–HCl [pH 7.4], 5 mM NaCl, 0.5 mM EDTA, 1% Triton X-100, 10% cOmplete Protease Inhibitor Cocktail EDTA-free). Lysates were bath sonicated for 10 min at 4 °C, centrifuged at 6000g for 3 min, and the supernatant was used for SDS-PAGE and immunoblotting. Total protein concentration was determined using the Pierce BCA Protein Assay Kit. Samples were diluted to 1 μg/μl in protein sample loading buffer (Li-Cor Biosciences).
(§4) Equal amounts of protein in each lane were resolved on a 12% SDS-PAGE gel for 1 h at 160 V. Samples were transferred to an Immobilon-FL PVDF membrane (Millipore) and subjected to Western immunoblot analysis using Li-Cor blocking buffer for both blocking and antibody diluents. Membranes were blocked for 1 h, then incubated for 2 h in primary antibodies as described under “Antibodies,” and finally incubated for 1 h with IRDye secondary antibodies directed at the species of the primary antibody. Following each antibody incubation, membranes were washed four times in PBS with 0.1% Tween-20. Membranes were imaged using an Azure600 imaging system (Azure Biosystems).

HEK-293T cells [3] = assay: RGS2 protein levels, baseline and with proteasome inhibitor MG-132; type: cell-based, human; conditions: for change of RGS2 protein levels with MG-132 / change of RGS2 protein levels with MG-132 (Fig. S4): MG-132 10 μM, 4 h
Text: Representative Western blot and quantification of three independent experiments. […] Representative Western blot and quantification of three independent experiments. Representative Western blot (D), quantification of knockdown efficiency (E), and effects on RGS protein levels (F) when FBXO44 is knocked down using siRNA. […] Result of three independent experiments. ∗p < 0.05; ∗∗p < 0.01; ∗∗∗p < 0.001 using two-way ANOVA followed by Tukey's post hoc test for pairwise comparisons (C, E, and F). FBXO44, F-box only protein 44; HEK-293T, human embryonic kidney-293T cell line; RGS2, regulator of G protein signaling 2.
as §3, §4
Figure S4. Effect of RGS2 mutations on protein stability. Representative western blot and quantification of five or six independent experiments (varies by mutation). The proteasome inhibitor MG-132 (10 μM, 4 h) […]
P15R were predicted to destabilize RGS2, due to increased binding to FBXO44 in the peptide microarray. […]
significant. *P<0.05; ***P<0.001 using two-way ANOVA followed by Tukey’s post hoc test for pairwise

FBXO44 [4] = assay: siRNA-mediated FBXO44 knockdown, Western blot; type: cell-based, human; conditions: HEK-293T cells; for RGS2 protein levels upon FBXO44 knockdown: FBXO44 siRNA, Fig. 7, D and F, three independent experiments
Description: Using a pool of 4 siRNA oligos (siGENOME SMART Pools; Dharmacon/Revvity), we achieved ∼70% reduction in endogenous FBXO44 protein levels in HEK-293T cells (Fig. 7, D and E).
Cells were maintained in a humidified incubator at 37 °C with 5% CO2. HEK-293T cells were obtained from the American Type Culture Collection (ATCC; CRL-1573). The American Type Culture Collection cell lines are subjected to comprehensive and repeated authentication and contamination checks, ensuring confirmation of cell line identity and ensuring that it is free of contamination prior to supplying it to users. Cells underwent periodical (every 6 months) mycoplasma testing to ensure cell lines are not compromised. Cells were cultured in Dulbecco's modified Eagle's medium (Gibco, catalog no.: 11995) and supplemented with 10% fetal bovine serum (Gibco, catalog no.: 16000). Cells were transfected with DNA plasmids using Lipofectamine 3000 (Invitrogen) under reduced serum conditions in Opti-MEM (Gibco, catalog no.: 31985). Media were changed to Dulbecco's modified Eagle's medium supplemented with 0.5% fetal bovine serum after 4 to 6 h, and cells were harvested for experiments 24 h after transfection. siRNA transfections were performed under reduced serum conditions in Opti-MEM 24 h prior to DNA transfections at 40% to 60% confluency. Cells were transfected with siGENOME SMART-POOL siRNA (FBXO44, M-019201-01-0005; Nontargeting, D-001206-13-05) from Dharmacon (Revvity) using Lipofectamine RNAiMAX (Invitrogen). Experiments were performed 72 h after transfection.
as §3, with “Biosciences). […]” for “Biosciences).”

FLAG-FBXO44 = assay: Coimmunoprecipitation of RGS2-HA mutant with FLAG-FBXO44; type: cell-based; conditions: HEK-293T cells, HA tag IP, normalized to input, % of WT; four independent experiments
Description: as §1, §2

[5] = Fig. 7, B and C, three independent experiments
[6] = Fig. S4, five or six independent experiments

B1: FLAG-FBXO44^Y234A: FLAG-tagged FBXO44 with Y234A mutation (protein)
chain: MAVGNINELPENILLELFTHVPARQLLLNCRLVCSLWRDLIDLVTLWKRKCLREGFITEDWDQPVADWKIFYFLRSLHRNLLHNPCAEEGFEFWSLDVNGGDEWKVEDLSRDQRKEFPNDQVKKYFVTSYYTCLKSQVVDLKAEGYWEELMDTTRPDIEVKDWFAARPDCGSKYQLCVQLLSSAHAPLGTFQPDPATIQQKSDAKWREVSHTFSNYPPGVRYIWFQHGGVDTHAWAGWYGPRVTNSSITIGPPLP
modifications: left off: FLAG, end not stated, kept
notes: FLAG-tagged FBXO44 with Y234A mutation
RGS2-HA
  association with RGS2-HA (co-IP): associates significantly less
RGS2-HA; listed as FBXO44^Y234A
  association with RGS2-HA (co-IP): significantly reduced association

B2: RGS4: closely related RGS4, subject to proteasomal degradation by a different pathway (protein, UniProt P49798 1-205, looked up)
Regulator of G-protein …: MCKGLAGLPASCLRSAKDMKHRLGFLLQKSDSCEHNSSHNKKDKVVICQRVSQEEVKKWAESLENLISHECGLAAFKAFLKSEYSEENIDFWISCEEYKKIKSPSKLSPKAKKIYNEFISVQATKEVNLDSCTREETSRNMLEPTITCFDEAQKKIFNLMEKDSYRRFLKSRFYLDLVNPSSCGAEKQKGAKSSADCASLVPQCA
FBXO44 [1]
  co-IP with FBXO44: does not coimmunoprecipitate with FBXO44

B3: RGS2^WT: full-length wild-type RGS2 expressed in HEK-293T cells (protein)
chain: MQSAMFLAVQHDCRPMDKSAGSGHKSEEKREKMKRTLLKDWKTRLSYFLQNSSTPGKPKTGKKSKQQAFIKPSPEEAQLWSEAFDELLASKYGLAAFRAFLKSEFCEENIEFWLACEDFKKTKSPQKLSSKARKIYTDFIEKEAPKEINIDFQTKTLIAQNIQEATSGCFTTAQKRVYSLMENNSYPRFLESEFYQDLCKKPQITTEPHAT
modifications: left off: HA, end not stated, kept
notes: full-length wild-type RGS2 expressed in HEK-293T cells
HEK-293T cells [2]; transfected HEK-293T
  RGS2 protein half-life (t1/2): 19.5 min
HEK-293T cells [3]; [5]
  change of RGS2 protein levels with MG-132: significantly enhanced
HEK-293T cells [3]; [6]
  change of RGS2 protein levels with MG-132 (Fig. S4): significantly increases
FBXO44 [4]
  RGS2 protein levels upon FBXO44 knockdown: significantly increases; also recorded: significant increase

B4: RGS2^C13S-HA: HA-tagged RGS2 with C13S mutation (protein)
chain: MQSAMFLAVQHDSRPMDKSAGSGHKSEEKREKMKRTLLKDWKTRLSYFLQNSSTPGKPKTGKKSKQQAFIKPSPEEAQLWSEAFDELLASKYGLAAFRAFLKSEFCEENIEFWLACEDFKKTKSPQKLSSKARKIYTDFIEKEAPKEINIDFQTKTLIAQNIQEATSGCFTTAQKRVYSLMENNSYPRFLESEFYQDLCKKPQITTEPHAT
modifications: left off: HA, end not stated, kept
notes: HA-tagged RGS2 with C13S mutation
FLAG-FBXO44
  association with FLAG-FBXO44 (co-IP): significantly reduced association; also recorded: associates significantly less

B5: RGS2^C13S: full-length RGS2 with C13S mutation (protein)
chain: MQSAMFLAVQHDSRPMDKSAGSGHKSEEKREKMKRTLLKDWKTRLSYFLQNSSTPGKPKTGKKSKQQAFIKPSPEEAQLWSEAFDELLASKYGLAAFRAFLKSEFCEENIEFWLACEDFKKTKSPQKLSSKARKIYTDFIEKEAPKEINIDFQTKTLIAQNIQEATSGCFTTAQKRVYSLMENNSYPRFLESEFYQDLCKKPQITTEPHAT
modifications: left off: HA, end not stated, kept
notes: full-length RGS2 with C13S mutation
HEK-293T cells [2]; CHX chase, RGS2^C13S versus RGS2^WT
  extension of RGS2 protein half-life versus RGS2^WT: almost twofold; also recorded: almost double that of RGS2^WT
HEK-293T cells [2]; CHX chase, transfected HEK-293T
  RGS2 protein stability versus RGS2^WT (in words): significantly stabilized
HEK-293T cells [2]; transfected HEK-293T
  RGS2 protein half-life (t1/2): 33.5 min
HEK-293T cells [3]; [5]
  change of RGS2 protein levels with MG-132: not significantly changed; also recorded: does not significantly change
HEK-293T cells [3]; no MG-132, Fig. 7, B and C, three independent experiments
  basal RGS2 protein level versus RGS2^WT: increased protein levels at baseline; however, this increase was not statistically significant; also recorded: upward trend in basal expression
FBXO44 [4]
  RGS2 protein levels upon FBXO44 knockdown: significantly increases RGS2^WT but not RGS2^C13S protein levels; also recorded: significant increase in RGS2^WT but not RGS2^C13S protein levels
FBXO44 [4]; Fig. 7F
  RGS2^C13S expression level versus RGS2^WT in siRNA experiments: significantly higher levels than RGS2^WT

B6: RGS2^D12R: full-length RGS2 with D12R mutation (protein, UniProt P41220 1-211, looked up, variant D12R)
chain: MQSAMFLAVQHRCRPMDKSAGSGHKSEEKREKMKRTLLKDWKTRLSYFLQNSSTPGKPKTGKKSKQQAFIKPSPEEAQLWSEAFDELLASKYGLAAFRAFLKSEFCEENIEFWLACEDFKKTKSPQKLSSKARKIYTDFIEKEAPKEINIDFQTKTLIAQNIQEATSGCFTTAQKRVYSLMENNSYPRFLESEFYQDLCKKPQITTEPHAT
modifications: full-length
notes: full-length RGS2 with D12R mutation
HEK-293T cells [3]; [6]
  change of RGS2 protein levels with MG-132 (Fig. S4): none of these mutations resulted in significant changes in basal expression or response to MG-132
HEK-293T cells [3]; no MG-132, Fig. S4, five or six independent experiments
  basal RGS2 protein expression versus RGS2^WT (Fig. S4): trend toward lower basal expression
